Measurements taken from patent US20140228277A1 (Genentech, published 2014).
Positions of bridges follow the written chain, without caps; N, C: chain ends. No end group written: not given here.

What was measured:
[1] = target: T1, recombinant human BACE1 (rhBACE1) (human, UniProt P56817 22-457, limits assumed); assay: spot phage ELISA, signal on BACE1 over signal on BSA
Protocol: After 4 rounds of binding selection, individual phage clones were analyzed in a high-throughput spot phage ELISA (Sidhu, S. S. et al. (2000) Methods Enzymol 328: 333-63) using plate-immobilized BACE1 as the target. The binding signal of the same phage particle to BSA was detected as non-specific binding noise. Clones with phage binding signal to target over 0.5 and signal/noise ratio>3 were considered to be positive clones and were subjected to DNA sequence analysis.

[2] = target: T1, recombinant human BACE1 (rhBACE1); assay: spot phage ELISA, plate-immobilized BACE1 against BSA
[3] = target: T1, recombinant human BACE1 (rhBACE1); assay: cell-based or functional assay
[4] = target: T1, recombinant human BACE1 (rhBACE1); assay: FP competition binding; 12 nM rhBACE1, competitor probe 5-TAMRA-BACE020
Protocol: BACE1 binding assays were carried out in a final volume of 10 μL per well in black 384-well microplates (Proxiplate-Plus; Perkin Elmer, Waltham, Mass.). […] The reaction was permitted to proceed towards equilibrium for 2 h at ambient temperature prior to fluorescence polarization measurement using Envision (Perkin Elmer). The parallel and perpendicular fluorescent emissions measured in each well at 595 nm (excitation 531 nm polarized light) were used to determine the milli-polarization level (mP) using the following formula: mP=1000*(S−G*P)/(S+G*P) where S=parallel emission, P=perpendicular emission and G=0.65.
The affinities of BACE1 peptide ligands were measured using the abovementioned competition binding FP assay for determining IC₅₀ values with serially diluted peptides. A Caliper assay was used to measure the inhibition of BACE1 enzymatic activity by peptide ligands.

T1 sequence (P56817 22-457 limits assumed): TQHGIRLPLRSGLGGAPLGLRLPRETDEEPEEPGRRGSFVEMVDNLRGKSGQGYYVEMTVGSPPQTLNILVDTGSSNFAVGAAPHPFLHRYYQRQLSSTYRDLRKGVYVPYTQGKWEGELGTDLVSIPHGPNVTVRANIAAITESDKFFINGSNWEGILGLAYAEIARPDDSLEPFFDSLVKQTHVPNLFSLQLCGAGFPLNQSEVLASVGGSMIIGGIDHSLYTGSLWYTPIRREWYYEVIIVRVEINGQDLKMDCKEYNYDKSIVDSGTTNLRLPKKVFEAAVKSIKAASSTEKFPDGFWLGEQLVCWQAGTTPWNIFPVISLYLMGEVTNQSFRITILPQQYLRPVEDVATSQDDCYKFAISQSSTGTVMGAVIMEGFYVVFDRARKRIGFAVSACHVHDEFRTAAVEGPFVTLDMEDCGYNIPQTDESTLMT

Row | Binder | signal/noise ratio [1] | fold improvement of signal/noise ratio over parent BACE017 [2] [fold] | Caliper (MCE) BACE1 activity assay IC50 [3] [nM] | HTRF BACE1 activity assay IC50 [3] [nM] | IC50 [4] [nM]
1 | NEESMYCRLLGIGCG (disulfide 7-14; also: displayed on M13 phage as N-terminal fusion to the coat protein, not shown: M13 major coat protein; peptide fused to its N-terminus) [phage-displayed peptide BACE020 (SEQ ID NO 16)] | > 20 | > 5 | – | – | –
2 | PEESLYCRLLALGCG (not shown: M13 major coat protein; peptide fused to its N-terminus) [phage-displayed peptide BACE021 (SEQ ID NO 17)] | > 20 | > 5 | – | – | –
3 | NELSPYCRLMGLGCD (not shown: M13 major coat protein; peptide fused to its N-terminus) [phage-displayed peptide BACE019 (SEQ ID NO 15)] | > 20 | > 5 | – | – | –
4 | KEESIYCRLMGLGCG (not shown: M13 major coat protein; peptide fused to its N-terminus) [phage-displayed peptide BACE018 (SEQ ID NO 14)] | > 20 | > 5 | – | – | –
5 | Ac-PEESLYCRLLALGCG-NH2 (disulfide 7-14 (inferred), also called BACE-21) [BACE021] | – | – | 17 | 22 | 25
6 | Ac-NEESMYCRLLGIGCG-NH2 (disulfide 7-14; SMILES CC[C@H](C)[C@@H]1NC(=O)CNC(=O)[C@H](CC(C)C)NC(=O)[C@H](CC(C)C)NC(=O)[C@H](CCCNC(=N)N)NC(=O)[C@@H](NC(=O)[C@H](Cc2ccc(O)cc2)NC(=O)[C@H](CCSC)NC(=O)[C@H](CO)NC(=O)[C@H](CCC(=O)O)NC(=O)[C@H](CCC(=O)O)NC(=O)[C@H](CC(N)=O)NC(C)=O)CSSC[C@@H](C(=O)NCC(N)=O)NC(=O)CNC1=O, also called BACE20; BACE-20) [BACE020] | – | – | 11 | 12 | 11
